# Measured values reported in the DeepSol protein solubility set.
# Test: soluble on expression in E. coli; label from the status in PepcDB or PDB records
row,Sequence,soluble on expression in E. coli
1,MKVNKALTIAGSDSGGGAGIQADLKTFQELGVYGMTAITAITAQNTLGVQGVYPVSLEGITEQLNSIGTDLTPDAVKIGMLFSSEIIQIVAEYINKFGWNNIVLDPVMIAKGGASLLQQEAVQALKEYLLPVATVITPNVPEAEVLTGLEIHNIEDSKEAAKVLHELGAKYVLMKGGHAEYQGNEVIDLLFDGEKFIEFRSERIPSKQTHGSGCTFASAVTAGLAKGYSMEEAVQEAKRFISIAIEEPLHIGSGHGPTNHFAYKMNKAQV,not soluble
2,MKIIAFYLPQFHQIKENDRWWGKGFTEWTNTKSAQPLFSGHYQPREPYQDFYYDLTTPSVRKWQAEIAKAYGIYGFCYYHYWFKGKRLLETPFNEVLKMKEPDFPFCLSWANEPWTKSWDGLDKHILMPQDYGDISDWKEHFDYLLQAFQDERYIYIDDKPLFIIYRPGHIPDCEKMLNYWNALARANGLKGIYFAETLNSFPLPNINGFDASIQFEPFYTIAHDSSSDINKVIYDSDMQLNVWDYDKVWMYILQRSLPKKKTFPGAFVDWDNTARRKNANSSIFVGSTPEKFTIYLSKQIHRTYSFYNSEFLFINAWNEWAEGTYLEPDKKYGFSYLEGVKNAIDRGMKAYKKDESFLEHHHHHH,not soluble
3,MKVVAFNGSPRKEGNTASLIKHVLAELDKEGIETEIVQIGGKSVHGCTACSKCFENRDRRCVIDNDIVNECIEKMLEADGIILASPTYFADLTPELKALIDRAGFVAKANSEMFRYKVGAAVVAVRRAGSIHVFDSINHFFTISQMIIPGSSYWNMGIGRAEGDVEKDDEGIRTMQILGQNMAWLLKKLNELEHHHHHH,not soluble
4,MGSDKIHHHHHHMDRFLSIEAFVRVAEASSFAEAARQLGVTSSVVTNRIQQLEKFVNAPLFHRSTRHVRLSEVGETFYRECAEVVGRVNELTDQMRELRATPTGRLRIQMLPGFALDHFGVPLAEFNRRYPGIQLDIIVNDRVVDPVEEGFDIAFQIFPPISESLIERRLFVVRRLFCASPAYLDAHGAPQHPRELLQHTTALYSGYPSRNRWTMTRGDEVVEMELPGMIRSNSVHLLREYALTGGGVVCLPTLVASEALVAGRLVPILTDFEIAPLSFAAVYPATQRQALKVKALVEFLAEYIGDESPWDRPLLERGWVR,not soluble
5,MAHHHHHHMSTKLEQENCKLLENIEVISTWSSNNDSNMESFVEPSELDIKDDNEKCLNILNDNLIYDFEKEEDEKKKKNKKNEKSSSNIDLEYDTMKKYIKCIIHNKEKEEFYSFMKYICDSDLFLTFVQLFLDLIKNKDSNLNPHDYLINFFQINIEEENNTNSIKRKNLIKENNFYKKQNEELKKQINIIQVEIMDMKKKNMCNYITNFFFKDNKQEYDASKIFQKVNLYYENIRIEPPFYFTKDTFNLFINYLSDNKRNYIYNIITDMYNIYETNHTLFITKFYKKLTNFIEFYRSFDK,not soluble
6,IKEGQLAEKTIRANKNIENTYETEQRKKLAAEAVTPEYIYQEDTASVQHNRIDKLFKLIDSANEKVDKEYSNKQAKAKKEETIPAPTVEERVASLKSLFESLPQDEVTFYQSFPNVFYQTIFTLTSEQLDKVRSESLMLVDDAMQNHVRESDLDKIRQEANGKIQYLDITSTMQQVIRYIVNQGIVVNDIANEKRTEELRQKAMNAVQPAMIYQGEIIVREGTQIDAKAVEKLELLGMTSQNTS,not soluble
7,SANKGQQPPYLHLAELTASQFLDIWKHFDADGNGYIEGKELDNFFSQLEIARRGAGVDPSNAAFKGRMTEFMQKFDKNKDGRIEMSELAQILPTEENFLLCFRQFVGSSTEFMAAWRKYDTDRSGFIEANELKGFLSDLLKKANRHYDDQKLQEYTQTILKMFDLNGDGKLGLSEMARLLPVQENFLLKFQGVRLSAEQFNAIFTYYDKDGNGYIDEQELDALLKDLYEKNNKEVDSKSLTGYKQSIMALSDGGKLYRSELEIVLCRDPML,soluble
8,MGSDKIHHHHHHADLQSNFLKMLVTQMNNQDPLNPMDNAQLTSQLAQISTVSSMQTMNSTLTQLLNQTSASRAMDSAALIGRTVMVPGSQFSVKDGVAGQFGVDLPSTADAVTVNVLDAHGNVVRTIDMKGQTAGVHDIAWDGKNDAGVAVADGDYSFKVSATANGTSVQPVALVYGKVNSISGDSSGVLVDVGNGQQANVDDVRRIL,not soluble
9,MSRLSEPSPYVEFDRRQWRALRMSTPLALTEEELVGLRGLGEQIDLLEVEEVYLPLARLIHLQVAARQRLFAATAEFLGEPQQNPDRPVPFIIGVAGSVAVGKSTTARVLQALLARWDHHPRVDLVTTDGFLYPNAELQRRNLMHRKGFPESYNRRALMRFVTSVKSGSDYACAPVYSHLHYDIIPGAEQVVRHPDILILEGLNVLQTGPTLMVSDLFDFSLYVDARIEDIEQWYVSRFLAMRTTAFADPESHFHHYAAFSDSQAVVAAREIWRTINRPNLVENILPTRPRATLVLRKDADHSINRLRLRKL,soluble
10,MSFDREEDQKLKFKTSKKLKVSSTFESMNLKDDLLRGIYSYGFEAPSSIQSRAITQIISGKDVIAQAQSGTGKTATFTIGLLQAIDLRKKDLQALILSPTRELASQIGQVVKNLGDYMNVNAFAITGGKTLKDDLKKMQKHGCQAVSGTPGRVLDMIKKQMLQTRNVQMLVLDEADELLSETLGFKQQIYDIFAKLPKNCQVVVVSATMNKDILEVTRKFMNDPVKILVKRDEISLEGIKQYVVNVDKEEWKFDTLCDIYDSLTITQCVIFCNTKKKVDWLSQRLIQSNFAVVSMHGDMKQEERDKVMNDFRTGHSRVLISTDVWARGIDVQQVSLVINYDLPEIIENYIHRIGRSGRFGRKGVAINFITKADLAKLREIEKFYSIKINPMPANFAELS,soluble
11,MEMFKMSREMLQLAEALASEKNVDAEVVFQALEFALSTAAKKKADREHMDVRVQINRDTGEYQTFRRWLIVADEDYTYPDVEKTIEEIQEEIPDTTIQIGEYYEEQLPNEGFGRQAAQTAKQIILQRIRDAEREQNLNEFLAVKEDIVSGTVKRVERHGIIVEVVAGKLDALIPRDQMIPRENFRSGDRIRALFLRVEEIGNTGRKQIILSRTSGDFLVKLYANEVPEIADGMLEIRAVARDPGQRAKVAVKANDQRIDPQGTCIGVRGSRVNAVSNELSGERIDVVLWSPEPAQFVMSALSPAEVSRIVIDEDKHAVDVIVAEDRLALAIGRGGQNVRLASDLTGWQLNIMTSAEADERNAAEDAAIRRLFMNHLNVDEETADVLVQEGFATLEEVAYVPAAELLAIEGFDEEIVDMLRNRARDAILTMAIAAEEKLGEVSDDMRNLEGVDADMLLSLAEAGITTRDDLAELAVDELIEITGVNEETAKAVILTAREHWFTEDKLEHHHHHH,soluble
12,MGSDKIHHHHHHMQDLNDLYYFVQVVKHGGFAPAGRALGIPKSKLSRRITQLEERLDTRLIHRSTRRFSVTELGQAYYRHSVAMLVEAEAAEELIQRHHAEPQGTVRLSCSPSVLHYLITPLLVRFMARCPKVEVQVEATSRRVDVIKEGFDLAIRVRFPPLEDSDLTMKVLASSPQRLMAAPSLFAERPRPRSPADLVELPSLDFEQYDHRHCWDLVGPNGASAQVPHWPRLVTDSAETLHAAALEGLGVVKLGLLVGARDIQEGRLIDVLPGWEPRGGILHAAFPSRRGLLPAVRALLDFLDEQIADEDFDTQEALINSSPRG,not soluble
13,MSLETFLCGKESCNKGYIRHPWYGKKVGYIGDSITDPNCYGDNIKKYWDFLKEWLDITPYVYGVSGRQWNDVPRQAEQLKKEHGEEVDAIVVLMGTNDFNSSVPVGTWFAEKEEQVMAARGETKKLETRKRRVPIMTNDTYKGRINIGLSHLKKLFPDKQIVLLTPLHRSLAEFGEKNVQPDESYQNKCGEYVDAYVQAIKEAGNLWGVPVIDFNSVTGMNPMIEEQLIYFYDSGYDRLHPNTNGQERMAHTLMYQLLSLPASFEGHHHHHH,soluble
14,MKKYQQLAEQLREQIASGIWQPGDRLPSLRDQVALSGMSFMTVSHAYQLLESQGYIIARPQSGYYVAPQAIKMPKAPVIPVTRDEAVDINTYIFDMLQASRDPSVVPFASAFPDPRLFPLQQLNRSLAQVSKTATAMSVIENLPPGNAELRQAIARRYALQGITISPDEIVITAGALEALNLSLQAVTEPGDWVIVENPCFYGALQALERLRLKALSVATDVKEGIDLQALELALQEYPVKACWLMTNSQNPLGFTLTPQKKAQLVALLNQYNVTLIEDDVYSELYFGREKPLPAKAWDRHDGVLHCSSFSKCLVPGFRIGWVAAGKHARKIQRLQLMSTLSTSSPMQLALVDYLSTRRYDAHLRRLRRQLAERKQRAWQALLRYLPAEVKIHHNDSGYFLWLELPEPLDAGELSLAALTHHISIAPGKMFSTGENWSRFFRFNTAWQWGEREEQAVKQLGKLIQERL,not soluble
15,YIGLVNSFAQKKKLSVNYEQCEPNSELPQRFICKCKIGQTMYGTGSGVTKQEAKQLAAKEAYQKLLKSPPKTAGT,soluble
16,REHDFDDLKFEHFLASAAGAFPAFLEVAEKRIIGEGVLRAVKESMRWHRAENVHFGAFLLLVPLISSWDAGGMVDIAEAARNRLRRTDFRDSLSVLEAFRLSNARVVEAGELNLKDRKTEEEIAQKKINLYEWMKMAPEENLIARELVDGFKISIEGAKFLLSFGNSGKAVVELYYHLLSKFPDPLVIAKMGREYAEKITEWAEKARTEEERKELDEKLLKDGANPGTIADLTASSIFLALAEGWR,soluble
17,MAHHHHHHMYRLVKFLYVNLLASTDLKRKYARAGDWAIVTGATEGIGYAMAMELARRGFNVCVVARTRSKLDAVVAEIEKKGVQGKAVVFDFSTADAQAYKRLFAELELLEVAILVNNVGVNYPYANYFDEADVEEDMKMLKVNCEATLRMTRFIVPRLKAKRSGGIVFLSSISATVPSPLLSAYAGTKSLSLSFGEGLAYELQQFGVDVLTVTPSLVVSRMTQGVSSRKPKETLFMVNAAAMAHQTLNKLGIVTRTAGHINHALLNSCLRILPESLVANKILTMHQAIKRRAERSRTQ,not soluble
18,MTGHWSYCDDDECGPNRWPTGQHQSPINIDLGEVERKDTHDGIKFVNYDHPIQGDIVNNGHSVQMTPELRSEHPEIYGGGLDQVYRLVQYHFHWGENDNEGSEHTLGGLRYPAELHLVHQGVEDPGKLAVVGVFLQLGKEGKALSNEERVLGKLCNPETVTRVENVRLSEKLPANKRSFWRYEGSLTTPPCSEIVTWTIFTEPVTVTHDQLELFRQVQDIEKRPIKKNYRPTQNLNDRKIVHIVAN,not soluble
19,MIKISTRFDAGSVVVKDLTDPSNIRLALRPDNASDFAQWFYFRLQGAAYQNCIMHFENAAEAAYPKGWEGYQACASYDRRNWFRVPTSYENGVLTVNHTPLSNSVYYAYFEPYSEEQHLNLLGDAQGSGLCRIDDLGSTVQGRDINLLTIGNQVESDLKIWITARQHPGETMAEWFIEGLLGRLLDPQDPTARALLDRATFYIVPNMNPDGSALGNLRTNAAGANLNREWENPTVEKSPEVFFVREKMLETGVDLFLDIHGDEGLPFVFVAGTEGVPNYNPRIAALEAQFKNALLNASPDFQDEYGYEKDAPGEANMTLATNWVGNRFNCLAYTLEMPFKDNANLPDDDFGWNGQRSLRLGEAALSAILNVIGDLR,not soluble
20,MAHHHHHHMEGQSELVERVVRMQLTSPDFAEYCVAHVTDPKHRFLFSRNEDEAERRLYVRLLEGRGHQKRAETPAVVAPAFAPERTSSLMTHGGTAVLWMSLLDYFSSTPGVRGPHMPHMFRTEADLTAFVDMLDGAQREHVSLEDVVQFMLRRLPMTEVFLYVLCYMCDVRIHEVRRETRRRSSGACVTDSADGASDEKKLQAAGTLLFIANMLLLQHDALERPLRYLSVFEFYMQRMVEALAGTVPKNSPVDTFLRETVMVWSEGHVFGEEALDCMKRAIGCSLG,not soluble
21,DAKEKRLREIQFEKEMIERDMREYRGFSRAVRAVFEEKERFPGLVDVVSNLIEVDEKYSLAVSVLLGGTAQNIVVRNVDTAKAIVEFLKQNEAGRVTILPLDLIDGSFNRISGLENERGFVGYAVDLVKFPSDLEVLGGFLFGNSVVVETLDDAIRMKKKYRLNTRIATLDGELISGRGAITGGREERSSNVFERRIKLKHLEQEMEETERQI,soluble
